Data on four molecules can be found in patent KR20130126543A.

B1: 모노 파아지 클론 A7 (scFv, V domains shown)
VH: QMQLVESGGGLVQPGTSLRLSCAASGFKFEDYAMHWVRQAPGKGLEWVSGVSWNSGTIAYVDSVKGRFTISRDNAKNSLYLQMNSLRAEDTAVYYCARDFTYFYESSGYYAFDLWGQGTMVTVSS
VL: SQLVLTQPPSVSGAPGQRVTISCTGTNSNIGAGYDVHWYQQVPGTTPKLLIYGNTNRPSGVPDRFSGSKSGTSASLAITGLQAEDGGDYYCQSFDSSLTGSVFGTGTKVTVL
B2: 모노 파아지 클론 F2 (scFv, V domains shown)
VH: QVQLVESGAEVKKPGASVKVSCKASGYTFTNYYMHWVRQAPGQGLEWMGIINPSGGNTGYAQKFQGRVTMTRDMSTSTAYMELSSLRSEDTAVYYCARGLPWGENGLDVWGQGTTVTVSS
VL: SQLVLTQPSSVSGAPGQTVTISCTGSSSNIGAGYDVHWYQQLPGTAPKVLIYGDSDRPSGVPDRFSGSKSATSASLAITGLQAEDEADYYCQSYDSSLSAYVFGTGTKVTVL
B3: 모노 파아지 클론 B10 (scFv, V domains shown)
VH: QVQLVESGGGLVQPGGSLRLSCAASGFIFDDYAMFWVRQVPGKGLEWVAGINWNGNGIGYGDSVRGRFIISRDNARNSLDLQMNSLRAEDTAVYYCARPSLYGGNSEFDLWGQGTLVTVSS
VL: SQLVLTQPPSVSGAPGQTVTISCTGPTIGAGYDVHWYQQLPGAAPKLLIYGNLNRPSGVPDRFSGSKSGTSASLAITDLQAEDEADYYCHTYDSSLSGSWVFGGGTKLTVL
B4: 모노 파아지 클론 D2 (scFv, V domains shown)
VH: QVQLVESGAEVKKPGSSVKVSCKGSGDTFPNYAINWVRQAPGQGPEWMGRIIPMLGTSDYAEKFQGRVTITADKSTNTAYMGLNSLRSEDTAVYYCVKGPRYYGTDSYYLEKWGQGTMVTVSS
VL: B3 VL

One test deals with Fc. Kind of test: mono phage ELISA; Fc coated 100 ng/well; anti-M13-HRP.
As for B1, the OD 490 nm (Fc) turned out to be 0.0421 OD490.
On to B2, for which the OD 490 nm (Fc) was 0.0405 OD490.
Still for that read-out and setting: the figure for B3 is 0.0406 OD490.
Same read-out and setting: the figure for B4 is 0.0415 OD490.

In the next test the target is IL-6R-Fc 항원 (human) (UniProt P08887). The test can be described thus: mono phage ELISA; ratio of the IL-6R full signal to the a-myc signal.
Chain of UniProt P08887 (P08887 20-365 limits assumed): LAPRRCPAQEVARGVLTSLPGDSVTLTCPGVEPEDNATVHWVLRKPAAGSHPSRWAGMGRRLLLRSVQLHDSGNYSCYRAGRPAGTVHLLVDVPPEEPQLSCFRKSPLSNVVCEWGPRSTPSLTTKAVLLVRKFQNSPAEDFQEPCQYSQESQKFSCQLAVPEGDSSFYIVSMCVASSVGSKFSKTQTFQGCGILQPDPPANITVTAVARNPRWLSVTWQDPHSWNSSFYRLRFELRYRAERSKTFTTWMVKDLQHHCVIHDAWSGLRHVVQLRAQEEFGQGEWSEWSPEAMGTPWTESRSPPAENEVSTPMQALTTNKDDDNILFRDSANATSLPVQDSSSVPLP
With B1, the Ratio was found to be 31.1.
On the same count and under the same terms, the figure for B2 is 9.96.
Still for that read-out and setting: the figure for B3 is 18.6.
On the same count and under the same terms, under B4 stands 7.71.

The target is the same in another test. The test can be described thus: mono phage ELISA; antigen coated 100 ng/well; anti-M13-HRP.
Consider B1, for which the OD 490 nm (IL-6R full) is 2.48 OD490.
Still for that read-out and setting: the figure for B2 is 2.86 OD490; for B3 it is 2.1 OD490; for B4 it is 2.34 OD490.
